Test results as given in the supplement of paper PMC9170038.

System: MS2 coat protein
Assay: apparent KD of MS2 coat protein; designed switch direction (-1 OFF switch, 1 ON switch): -1; higher = weaker reporter binding
Method in brief: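 Each step of the titration lasted 0.8–1.5 h at the lowest concentration and 10–20 min at the highest. The protein, SNAP-549-labelled MS2 coat protein, went from 0.7 or 1.5 nM doubling to 3 µM over RNA switches transcribed on Illumina chips by stalled E. coli RNA polymerase. Normalised cluster fluorescence was curve-fitted, and the per-design median over clusters is given as apparent KD.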

[1] = Eterna round: R95, input ligand: microRNA oligo, concentration not stated
[2] = input ligand: microRNA oligo, concentration not stated
[3] = Eterna round: R95, input ligand: FMN 200 uM
[4] = Eterna round: R95, input ligand: none

| Sequence | apparent KD of MS2 coat protein (input ligand: FMN 200 uM) | apparent KD of MS2 coat protein (input ligand: none) | apparent KD of MS2 coat protein [1] | also measured |
| --- | --- | --- | --- | --- |
| UUCACAUGGACAUAAGAUCACAUGAGGAUCACCCAUGUGAAUAACAAGCUUUUUGCUCGUCUUAUGUCCAAUAAUAG [Stov1/14-A2] (Eterna round: R97, puzzle: Sensor, turn-off variant 1) | 15.8 nM | 13.3 nM | – | – |
| AAACCUUGAGGAUAUACAUAACAACAAAGCCUCACGUGCCAACAUGAGGAUCACCCAUGUAGAAGGCAGGCCAA [Mod R3 Insanara 11 - Jieux - Exclusion 2] (Eterna round: R97, puzzle: Exclusion 2) | 15.6 nM | 12.7 nM | – | – |
| UUUUAACAUGAGGAUCACCCAUGUGAGGAUAUCGAAAUUUAUAUUUAUAUUUAUUAAACGAGAAGGCACAUUUU [JMF 99] (puzzle: Exclusion 1) | – | – | 66.9 nM | – |
| GUCAGCUCGUCAGGAUAUGAACAUGAGGAUCACCCAUGUAAGAUCAAGCUGCUUCGGCAGCAAGUUCAGAAGGGACGAGCUGAU [ENG2/10-B2] (Eterna round: R96, puzzle: Exclusion NG 2) | 167 nM | 104 nM | – | apparent KD of MS2 coat protein [2]: 136 nM |
| CAGCUGAAAGUCAGGAUAUCUAGAGCGAUAGCUCUAGAGAAGGGACAUGAGGAUCACCCAUGUGAUCACAGCUG [BmEx4/4-A4] (Eterna round: R97, puzzle: Brourd's mod of Exclusion 4) | 408 nM | 1980 nM | – | – |
| GUCAGCUCGUGAGGAUAUACAUGCGUGCUUCGGCACGUAUGAUAGAUCACAUGAGGAUCACCCAUGUAGAAGGCACGAGCUGAC [ENG2/4-A1] (Eterna round: R96, puzzle: Exclusion NG 2) | 18.8 nM | 12.9 nM | – | apparent KD of MS2 coat protein [2]: 11.1 nM |
| AGAAAUGCCCGUGACCACAAGCUUUUUGCUUGUCUUACUACAUGAGGAUCACCCAUGUAACAUGGGCUCCUGACAAU [Maleisar] (puzzle: Sensor v3, turn-off variant 2) | – | – | 9.6 nM | apparent KD of MS2 coat protein [3]: 14.7 nM; apparent KD of MS2 coat protein [4]: 12.5 nM |
| AGCCAAGCAGGAUAUAUCCGGGAUAACAUGAGGAUCACCCAUGUGACCGAUUGAUGUCCUAUAGAAGGGCUUGGGA [Mod of ViennaUCT 22 - Jieux - Exclusion 5] (Eterna round: R97, puzzle: Exclusion 5) | 176 nM | 43.5 nM | – | – |
| AUAUUGUGAGGAUAUGAACUUAGUAUCGAAAGAUAGUAAGUUCAGAAGGCACAUGAGGAUCACCCAUGUUUCUC [Long static hairpin v8] (Eterna round: R97, puzzle: Exclusion 4) | 399 nM | 69.8 nM | – | – |
| CUUUUGUGAGGAUAUCAGUAGUAAUACAAUAGUAUUACUACUGAGAAGGCACAUGAGGAUCACCCAUGUUCCUU [Ex4 344 Omei mod 1] (puzzle: Exclusion 4) | – | – | 14.5 nM | – |
| GUGUAGACAGGAUAUGCUUUGAGCAUAUGAGAGUAUGCUCUACAUGAGGAUCACCCAUGUAGAAGGGUCUACAC [LRO-Excl2-01] (puzzle: Exclusion 2) | – | – | 11 nM | – |
| ACCAUGUUAGGAUAUGCGUGGCAUAGACCGGUCUAUCCGCGGUAGAAGGGACAUGAGGAUCACCCAUGUGCGAG [Eternabot (L2) Solution 85] (Eterna round: R97, puzzle: Exclusion 4) | 41.5 nM | 32.3 nM | – | – |
| UUGUAACAUGAGGAUCACCCAUGUGAGGAUAUGGCCCGCCCGGCGUGAGCUGGUUUUGUCAGAAGGCGCAUAGG [salish99_ex1_r4_022] (Eterna round: R97, puzzle: Exclusion 1) | 158 nM | 49.9 nM | – | – |
| UAUUAGCAAGCGAGAUCCCACAUGAGGAUCACCCAUGUGCUCGUCUUAUAAAGUACUGUGACGAUAGUCACGGUACA [Mat - Sensor, turn-off var - Eli Mod - D8] (Eterna round: R97, puzzle: Sensor, turn-off variant 1) | 16.6 nM | 15.6 nM | – | – |
| UUUUGACAUGAGGAUCACCCAUGUUAGGAUAUCUUAAGGGAUGGAACAGGGUCGGAACAGAGAAGGAGCGUGGG [EX1 B.26] (Eterna round: R97, puzzle: Exclusion 1) | 82.4 nM | 47.9 nM | – | – |
| UAACAUGUACAAGGAUAUCAGCACGAUUAGUGCUGAGAAGGUGUAACAUGAGGAUCACCCAUGUAGAUCAUUAAUUAAUUAAUU [ENG1/9-B1] (Eterna round: R96, puzzle: Exclusion NG 1) | 319 nM | 56.6 nM | – | apparent KD of MS2 coat protein [2]: 60.9 nM |
| AAAAAGUUAGGAUAUACAUGAGGAUCACCCAUGUACAUAUAUGGAGAAAAAAACAGUAGUAGAAGGGACAAAAA [EX2 Malc#12] (Eterna round: R96, puzzle: Exclusion 3) | 28.8 nM | 29.2 nM | – | apparent KD of MS2 coat protein [2]: 23.3 nM |

| Sequence | apparent KD of MS2 coat protein (input ligand: FMN 200 uM) | apparent KD of MS2 coat protein (input ligand: none) | apparent KD of MS2 coat protein [1] | also measured |
| --- | --- | --- | --- | --- |
| UUUAAUUUUUUUUUUUUACAAGCUUUUUGCUCGUCUUAUACAUGAGGAUCACCCAUGUGGGUGGAAAAUAAAUUAUC [JMF 92] (puzzle: Sensor v3, turn-off variant 2) | – | – | 45 nM | apparent KD of MS2 coat protein [3]: 33.9 nM; apparent KD of MS2 coat protein [4]: 88.4 nM |
| UUGUUAUAUGUAGGAUAUGCAUAUUAUUAUUAUGCAGAAGGACAUGAGGAUCACCCAUGUAUAUUAUUAUUAUAUGUUAUAUAU [Title] (Eterna round: R96, puzzle: Exclusion NG 1) | – | – | – | apparent KD of MS2 coat protein [2]: 19.5 nM |
| UUCGUACAGCUUUGCUGUACGCGUACAUGAGGAUCACCCAUGUAGGAUAUGGUAGGCAAAGCUUACUAGAAGGAUAGAGUGAUC [Mat - Exclusion NG 3 - Mod of JL - D75] (Eterna round: R96, puzzle: Exclusion NG 3) | 244 nM | 238 nM | – | apparent KD of MS2 coat protein [2]: 96.2 nM |
| AAUAACAAUGUGAGGAUAUCUAGAGCUUCGGCUCUAGAGAAGGCACAUGAGGAUCACCCAUGUCUCAAUAACAA [BmEx4/2-E6] (Eterna round: R97, puzzle: Brourd's mod of Exclusion 4) | 339 nM | 54.6 nM | – | – |
| UCUAGUUGGCAAGGAUAUCCUACAUUGUUCUGGCCCGGGCAUGCUACAUGAGGAUCACCCAUGUGGGAGAAGGUGCGUCAUUGC [Design 22] (Eterna round: R96, puzzle: Exclusion NG 2) | 70.9 nM | 82.1 nM | – | apparent KD of MS2 coat protein [2]: 50.5 nM |
| UUUUAACAUGAGGAUCACCCAUGUGAGGAUAUCGAAAUUUAUAUUAAUAUUAAUAAAUCGAGAAGGCACAUUUU [JMF 20] (puzzle: Exclusion 1) | – | – | 109 nM | – |
| CAUGGCACGUAGGAUAUCUCGCAGCCCGGCUGCAGAGAAGGACGUACAUGAGGAUCACCCAUGUAUGAUCCAAA [Laquus] (puzzle: Exclusion 6) | – | – | 24.1 nM | – |
| GGCAAUAUGUAGGAUAUCGUAUCGGAAACGAUACGAGAAGGGCAAACAUGAGGAUCACCCAUGUUCUUCAAGCC [Fiskers Ex 6 - 11] (puzzle: Exclusion 6) | – | – | 15.6 nM | – |
| GUGAGGUAAGGAUAUAGUAGUGAAGGUAAAAUAUGAGAAUGCUAGAAGGUACAUGAGGAUCACCCAUGUUAGGG [JR_Exclu4_Sub088] (puzzle: Exclusion 4) | – | – | 146 nM | – |
| CCUAUGUUAGGAUAUUGCUCUCAGCCGUAGGAGGACAUGACCGAGAAGGAACAUGAGGAUCACCCAUGUGUAUU [Eternabot (L2) Solution 53] (Eterna round: R97, puzzle: Exclusion 4) | 17.4 nM | 24 nM | – | – |
| GAAAAGGUAGGAUAUACGAAAAAAAAGGGUAGAAAAAAAAAACAUGAGGAUCACCCAUGUAGAAGGACCAAAAG [salish99_ex2_r3_059] (Eterna round: R96, puzzle: Exclusion 2) | – | – | – | apparent KD of MS2 coat protein [2]: 34.7 nM |
| CUCGCAUUAGGAUAUACAUGAGGAUCACCCAUGUAUAAACCCAGGGUCAACGCCAUAUGUAGAAGGAGUAGCGA [Eternabot (L1) Solution 59] (Eterna round: R97, puzzle: Exclusion 3) | 22.2 nM | 17 nM | – | – |
| GCAGGUCAAGGAUAUACAUGAGGAUCACCCAUGUGAUUAGCAGUCCUCGGACUGCAAUGUAGAAGGUGACCUGC [E3/2-C2] (Eterna round: R97, puzzle: Exclusion 3) | 2140 nM | 329 nM | – | – |
| CUCGUGGUGAAGGAUAUCCGCGAGAAAAUAAAAGGAGAAGGUCACACAUGAGGAUCACCCAUGUGAUGAAGAAA [Anesanza] (puzzle: Exclusion 6) | – | – | 11.6 nM | apparent KD of MS2 coat protein [3]: 16.4 nM; apparent KD of MS2 coat protein [4]: 11.9 nM |
| GAGUAGUAAGGAUAUGUCUCUGGUGGCUUCGGUCACUAGAGGCAGAAGGUACAUGAGGAUCACCCAUGUUCCUC [ExDelusion 7 - Jieux - Exclusion 4] (Eterna round: R97, puzzle: Exclusion 4) | 220 nM | 55.2 nM | – | – |
| ACCUCACAUGAGGAUCACCCAUGUUAGGAUAUCUCGACACUCCGCGGGCGGUAGCGUCAGAGAAGGAACGUGCU [Iszaxeza] (puzzle: Exclusion 1) | – | – | 23.1 nM | – |
